Test [1] deals with TW1 (DtxR-Geminin coiled-coil-SpyCatcher) (UniProt P0DJL7). The test can be described thus: mass photometry.
Test [2] deals with TW2 (TrpR-Geminin coiled-coil-SpyTag-Geminin coiled-coil-MetJ) (UniProt P0A881). Nature of the test: mass photometry.

For orientation: stoichiometry N means a count of units in the complex or per binding partner. In turn, “TW1 (DtxR-Geminin coiled-coil-SpyCatcher) (from UniProt P0DJL7 2-121; O75496 110-145)” displayed a stoichiometry N in test [1] of 2.

As to “TW2 (TrpR-Geminin coiled-coil-SpyTag-Geminin coiled-coil-MetJ) (from UniProt P0A881 2-108; O75496 110-145; O75496 110-145; P0A8U6 2-105)”, the stoichiometry N in test [2] came out at 2.

The values above are taken from doi:10.1101/2025.03.07.641123.
